According to PMC6262109:
Where two headings read alike, the source gives them in different places.

Columns and labels:
Experiment in all cases: EMSA
[1] = biological target: T1, FLAG-Dmp1 (Dmp1alpha);p53 (mouse?;, UniProt Q8CE22;P04637 1-761;1-393, |)
[2] = biological target: T2, FLAG-Dmp1 (Dmp1alpha) (UniProt Q8CE22 1-761)
T2 sequence: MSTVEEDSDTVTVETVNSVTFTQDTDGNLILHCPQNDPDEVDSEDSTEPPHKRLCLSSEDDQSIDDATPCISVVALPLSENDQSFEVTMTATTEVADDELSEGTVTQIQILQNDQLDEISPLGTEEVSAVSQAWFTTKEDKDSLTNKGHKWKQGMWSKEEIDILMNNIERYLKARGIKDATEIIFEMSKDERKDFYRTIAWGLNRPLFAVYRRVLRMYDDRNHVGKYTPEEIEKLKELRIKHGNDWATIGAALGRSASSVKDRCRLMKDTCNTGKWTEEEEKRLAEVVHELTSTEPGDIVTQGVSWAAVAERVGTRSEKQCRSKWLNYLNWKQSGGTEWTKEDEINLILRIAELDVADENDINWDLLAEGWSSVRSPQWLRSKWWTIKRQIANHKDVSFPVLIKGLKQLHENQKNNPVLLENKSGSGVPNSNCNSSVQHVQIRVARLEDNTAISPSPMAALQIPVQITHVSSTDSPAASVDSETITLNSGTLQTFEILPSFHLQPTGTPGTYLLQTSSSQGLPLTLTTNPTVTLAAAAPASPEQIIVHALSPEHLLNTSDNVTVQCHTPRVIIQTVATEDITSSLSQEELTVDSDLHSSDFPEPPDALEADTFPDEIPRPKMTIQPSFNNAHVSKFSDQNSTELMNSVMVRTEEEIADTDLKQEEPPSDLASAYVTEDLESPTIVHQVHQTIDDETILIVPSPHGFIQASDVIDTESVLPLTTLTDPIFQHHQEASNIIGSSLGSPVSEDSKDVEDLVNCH

[3] = biological target: T1, FLAG-Dmp1 (Dmp1alpha);p53; remark: listed apart in the source
[4] = biological target: p53 (UniProt P04637 1-393)

B1: p53-g general p53 consensus (dsDNA)
DNA 1: AGGCATGCCTAGGCATGCCT
DNA 2: AGGCATGCCTAGGCATGCCT
binding signal [1]: 6 fold vs p53 alone

B2: mouse Arf promoter Dmp1 site (dsDNA)
DNA 1: TACCTCGTGGGGCGGATGCACAGAAGCAC
DNA 2: GTGCTTCTGTGCATCCGCCCCACGAGGTA
binding result [2]: binds

B3: mouse p21Cip1 p53 consensus #2 (dsDNA)
DNA 1: AGACTGGGCATGTCTGGGCA
DNA 2: TGCCCAGACATGCCCAGTCT
binding signal [3]: 3 fold vs p53+BSA
binding result [4]: binds
